Numbered stars: 1 amine (or outer) side, 2 acyl side, 3 side chain; on linkers, the order of the positions; unused ones are H or OH. Bridge positions count the residues as written; N and C are the ends. Square brackets hold non-standard residues; d marks the D form. Ends that are not written are not given here. * marks the point of attachment. X4 = (1S,3R)‑3‑(Amino)cyclopentanecarboxylic acid, O=C([C@H]1CC[C@@H](N[*:1])C1)[*:2]; X9 = (S)‑3‑(1-Pyrrolidine-2-yl)‑propionic acid, O=C(CC[C@@H]1CCCN1[*:1])[*:2]; X14 = (2,4-dioxoimidazolidin-1-yl)acetic acid, O=C1CN(CC(=O)*)C(=O)N1; Nip(3R) = O=C([C@@H]1CCCN([*:1])C1)[*:2]; Oic = O=C(O)[C@@H]1C[C@@H]2CCCC[C@@H]2N1; Pen = CC(C)(S)[C@H](N)C(=O)O; Ahx = NCCCCCC(=O)O; Sar = CNCC(=O)O
T1: recombinant rat MASP1 active protease (amino acids 302-704, C-terminal His Tag) (rat, UniProt Q8CHN8 302-704)
T1 sequence: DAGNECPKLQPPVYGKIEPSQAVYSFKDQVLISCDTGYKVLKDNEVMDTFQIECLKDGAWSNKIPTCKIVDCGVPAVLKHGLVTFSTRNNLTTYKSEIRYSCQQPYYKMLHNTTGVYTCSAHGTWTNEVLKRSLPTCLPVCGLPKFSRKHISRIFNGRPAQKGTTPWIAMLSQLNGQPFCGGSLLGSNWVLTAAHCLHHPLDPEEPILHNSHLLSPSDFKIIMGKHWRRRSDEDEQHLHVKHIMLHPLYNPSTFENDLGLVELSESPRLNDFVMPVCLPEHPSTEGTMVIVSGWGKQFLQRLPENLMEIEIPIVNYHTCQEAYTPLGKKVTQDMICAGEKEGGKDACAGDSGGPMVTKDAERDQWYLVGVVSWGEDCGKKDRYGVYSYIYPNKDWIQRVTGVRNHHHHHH

B1: Example 457: ((2,4-dioxoimidazolidin-1-yl)acetic acid)-IC+SRSLP-(Oic)-I-(Pen)+IPD-OH (peptide)
peptide: X14-ICSRSLP[Oic]I[Pen]IPD-OH
modifications: disulfide 2-10
SMILES: CC[C@H](C)[C@H](NC(=O)CN1CC(=O)NC1=O)C(=O)N[C@H]1CSSC(C)(C)[C@@H](C(=O)N[C@H](C(=O)N2CCC[C@H]2C(=O)N[C@@H](CC(=O)O)C(=O)O)[C@@H](C)CC)NC(=O)[C@H]([C@@H](C)CC)NC(=O)[C@@H]2C[C@@H]3CCCC[C@@H]3N2C(=O)[C@@H]2CCCN2C(=O)[C@H](CC(C)C)NC(=O)[C@H](CO)NC(=O)[C@H](CCCNC(=N)N)NC(=O)[C@H](CO)NC1=O
B2: Example 463: ((N-Me)G)-IC+SRSLP-(Oic)-I-(Pen)+IPDK-OH (peptide)
peptide: [Sar]ICSRSLP[Oic]I[Pen]IPDK-OH
modifications: disulfide 3-11; N-terminus assumed
SMILES: CC[C@H](C)[C@H](NC(=O)CNC)C(=O)N[C@H]1CSSC(C)(C)[C@@H](C(=O)N[C@H](C(=O)N2CCC[C@H]2C(=O)N[C@@H](CC(=O)O)C(=O)N[C@@H](CCCCN)C(=O)O)[C@@H](C)CC)NC(=O)[C@H]([C@@H](C)CC)NC(=O)[C@@H]2C[C@@H]3CCCC[C@@H]3N2C(=O)[C@@H]2CCCN2C(=O)[C@H](CC(C)C)NC(=O)[C@H](CO)NC(=O)[C@H](CCCNC(=N)N)NC(=O)[C@H](CO)NC1=O
B3: Example 454: ((N-Me)G)-IC+SRSLP-(Oic)-I-(Pen)+IPN-OH (peptide)
peptide: [Sar]ICSRSLP[Oic]I[Pen]IPN-OH
modifications: disulfide 3-11; N-terminus assumed
SMILES: CC[C@H](C)[C@H](NC(=O)CNC)C(=O)N[C@H]1CSSC(C)(C)[C@@H](C(=O)N[C@H](C(=O)N2CCC[C@H]2C(=O)N[C@@H](CC(N)=O)C(=O)O)[C@@H](C)CC)NC(=O)[C@H]([C@@H](C)CC)NC(=O)[C@@H]2C[C@@H]3CCCC[C@@H]3N2C(=O)[C@@H]2CCCN2C(=O)[C@H](CC(C)C)NC(=O)[C@H](CO)NC(=O)[C@H](CCCNC(=N)N)NC(=O)[C@H](CO)NC1=O
B4: Example 466: ((N-Me)G)-IC+SRSLP-(Oic)-I-(Pen)+IPDD-OH (peptide)
peptide: [Sar]ICSRSLP[Oic]I[Pen]IPDD-OH
modifications: disulfide 3-11; N-terminus assumed
SMILES: CC[C@H](C)[C@H](NC(=O)CNC)C(=O)N[C@H]1CSSC(C)(C)[C@@H](C(=O)N[C@H](C(=O)N2CCC[C@H]2C(=O)N[C@@H](CC(=O)O)C(=O)N[C@@H](CC(=O)O)C(=O)O)[C@@H](C)CC)NC(=O)[C@H]([C@@H](C)CC)NC(=O)[C@@H]2C[C@@H]3CCCC[C@@H]3N2C(=O)[C@@H]2CCCN2C(=O)[C@H](CC(C)C)NC(=O)[C@H](CO)NC(=O)[C@H](CCCNC(=N)N)NC(=O)[C@H](CO)NC1=O
B5: Example 453: ((N-Me)G)-IC+SRSLP-(Oic)-I-(Pen)+IP-((S)-3-(1-Pyrrolidine-2-yl)-propionic acid)-OH (peptide)
peptide: [Sar]ICSRSLP[Oic]I[Pen]IP[X9]-OH
modifications: disulfide 3-11; N-terminus assumed
SMILES: CC[C@H](C)[C@H](NC(=O)CNC)C(=O)N[C@H]1CSSC(C)(C)[C@@H](C(=O)N[C@H](C(=O)N2CCC[C@H]2C(=O)N2CCC[C@H]2CCC(=O)O)[C@@H](C)CC)NC(=O)[C@H]([C@@H](C)CC)NC(=O)[C@@H]2C[C@@H]3CCCC[C@@H]3N2C(=O)[C@@H]2CCCN2C(=O)[C@H](CC(C)C)NC(=O)[C@H](CO)NC(=O)[C@H](CCCNC(=N)N)NC(=O)[C@H](CO)NC1=O
B6: Example 459: ((R)-Piperidine-3-carboxylic acid)-IC+SRSLP-(Oic)-I-(Pen)+I-OH (peptide)
peptide: [Nip(3R)]ICSRSLP[Oic]I[Pen]I-OH
modifications: disulfide 3-11; N-terminus assumed
SMILES: CC[C@H](C)[C@H](NC(=O)[C@H]1NC(=O)[C@H]([C@@H](C)CC)NC(=O)[C@@H]2C[C@@H]3CCCC[C@@H]3N2C(=O)[C@@H]2CCCN2C(=O)[C@H](CC(C)C)NC(=O)[C@H](CO)NC(=O)[C@H](CCCNC(=N)N)NC(=O)[C@H](CO)NC(=O)[C@@H](NC(=O)[C@@H](NC(=O)[C@@H]2CCCNC2)[C@@H](C)CC)CSSC1(C)C)C(=O)O
B7: Example 452: ((N-Me)G)-IC+SRSLP-(Oic)-I-(Pen)+IP-((1S,3R)-3-(Amino)cyclopentanecarboxylic acid)-OH (peptide)
peptide: [Sar]ICSRSLP[Oic]I[Pen]IP[X4]-OH
modifications: disulfide 3-11; N-terminus assumed
SMILES: CC[C@H](C)[C@H](NC(=O)CNC)C(=O)N[C@H]1CSSC(C)(C)[C@@H](C(=O)N[C@H](C(=O)N2CCC[C@H]2C(=O)N[C@@H]2CC[C@H](C(=O)O)C2)[C@@H](C)CC)NC(=O)[C@H]([C@@H](C)CC)NC(=O)[C@@H]2C[C@@H]3CCCC[C@@H]3N2C(=O)[C@@H]2CCCN2C(=O)[C@H](CC(C)C)NC(=O)[C@H](CO)NC(=O)[C@H](CCCNC(=N)N)NC(=O)[C@H](CO)NC1=O
B8: Example 465: ((N-Me)G)-IC+SRSLP-(Oic)-I-(Pen)+IPD-(Ahx)-OH (peptide)
peptide: [Sar]ICSRSLP[Oic]I[Pen]IPD[Ahx]-OH
modifications: disulfide 3-11; N-terminus assumed
SMILES: CC[C@H](C)[C@H](NC(=O)CNC)C(=O)N[C@H]1CSSC(C)(C)[C@@H](C(=O)N[C@H](C(=O)N2CCC[C@H]2C(=O)N[C@@H](CC(=O)O)C(=O)NCCCCCC(=O)O)[C@@H](C)CC)NC(=O)[C@H]([C@@H](C)CC)NC(=O)[C@@H]2C[C@@H]3CCCC[C@@H]3N2C(=O)[C@@H]2CCCN2C(=O)[C@H](CC(C)C)NC(=O)[C@H](CO)NC(=O)[C@H](CCCNC(=N)N)NC(=O)[C@H](CO)NC1=O

Tests used:
[1] = molecular target: T1, recombinant rat MASP1 active protease …; test: cell-based or functional assay
[2] = molecular target: recombinant rat MASP2 active protease (amino acids 296-685, C-terminal His Tag) (rat, UniProt Q9JJS8 296-685); test: cell-based or functional assay
Chain of recombinant rat MASP2 active protease (amino acids 296-685, C-terminal His Tag) (Q9JJS8 other isoform, or with tags, fused parts or gaps limits assumed): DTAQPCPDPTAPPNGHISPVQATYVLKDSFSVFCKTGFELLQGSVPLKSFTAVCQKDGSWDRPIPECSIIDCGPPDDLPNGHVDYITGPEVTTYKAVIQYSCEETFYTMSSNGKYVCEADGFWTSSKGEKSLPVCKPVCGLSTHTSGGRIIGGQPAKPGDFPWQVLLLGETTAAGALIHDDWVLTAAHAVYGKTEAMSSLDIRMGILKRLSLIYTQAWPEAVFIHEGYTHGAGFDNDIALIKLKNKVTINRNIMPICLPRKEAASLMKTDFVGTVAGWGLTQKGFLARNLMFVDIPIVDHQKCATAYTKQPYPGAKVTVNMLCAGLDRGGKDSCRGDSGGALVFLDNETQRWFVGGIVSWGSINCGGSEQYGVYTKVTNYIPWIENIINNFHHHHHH

| Binder | rat MASP1 IC50 [1] [nM] | rat MASP2 IC50 [2] [nM] |
| --- | --- | --- |
| B1 | 20 | 5 |
| B2 | 190 | 100 |
| B3 | 127 | 79 |
| B4 | 17.6 | 72 |
| B5 | 38 | 32 |
| B6 | 180 | 51 |
| B7 | 36 | 37 |
| B8 | 72 | 140 |

Source: patent US20210246166A1 (Bayer, published 2021)
